Reference: patent US20190300590A1 (PROTAGONIST THERAPEUTICS, published 2019)
Bridges are numbered along the chain shown (N, C = ends). [ ]: non-standard residue; d: D form. hLeu = CC(C)CC[C@H](N)C(=O)O; PEG1 = NCCOCCC(=O)O; AEA = NCCOCC(=O)O

T1: IL23R_huFC (human, UniProt Q5VWK5 24-353)
T1 sequence (looked up): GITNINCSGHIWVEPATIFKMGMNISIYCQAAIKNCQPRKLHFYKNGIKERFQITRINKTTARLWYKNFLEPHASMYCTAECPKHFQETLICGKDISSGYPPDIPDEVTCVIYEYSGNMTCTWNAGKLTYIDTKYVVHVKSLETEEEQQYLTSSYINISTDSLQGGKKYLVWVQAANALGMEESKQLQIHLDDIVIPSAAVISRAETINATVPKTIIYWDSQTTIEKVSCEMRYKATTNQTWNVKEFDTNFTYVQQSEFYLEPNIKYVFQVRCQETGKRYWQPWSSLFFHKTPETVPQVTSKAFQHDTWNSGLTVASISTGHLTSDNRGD


Each binder was assayed against T1, IL23R_huFC (assay: IL23-IL23R competitive ELISA).

Binder	IC50
Ac-CRTWECYWHEYG-NH2 (disulfide 1-6 (inferred)) [Ac-CRTWECYWHEYG-NH2]	< 500 nM
Ac-CRTWQCYWHEYG-NH2 (disulfide 1-6 (inferred)) [Ac-CRTWQCYWHEYG-NH2]	< 500 nM
Ac-CTTWECYWHQFG-NH2 (disulfide 1-6 (inferred)) [Ac-CTTWECYWHQFG-NH2]	< 500 nM
Ac-CTTWECYWHEFG-NH2 (disulfide 1-6 (inferred)) [Ac-CTTWECYWHEFG-NH2]	< 500 nM
Ac-CTTWTCYWHQYG-NH2 (disulfide 1-6 (inferred)) [Ac-CTTWTCYWHQYG-NH2]	< 500 nM
Ac-CQTWQCYWRENG-NH2 (disulfide 1-6 (inferred)) [Ac-CQTWQCYWRENG-NH2]	< 500 nM
Ac-CQTWQCYWLENG-NH2 (disulfide 1-6 (inferred)) [Ac-CQTWQCYWLENG-NH2]	< 500 nM
Ac-CADWVCYWHTYG-NH2 (disulfide 1-6 (inferred)) [Ac-CADWVCYWHTYG-NH2]	< 500 nM
Ac-CTDWVCYWHTFG-NH2 (disulfide 1-6 (inferred)) [Ac-CTDWVCYWHTFG-NH2]	< 500 nM
Ac-CKTWTCYWHEFG-NH2 (disulfide 1-6 (inferred)) [Ac-CKTWTCYWHEFG-NH2]	< 500 nM
Ac-CRTWECYWHEQS-NH2 (disulfide 1-6 (inferred)) [Ac-CRTWECYWHEQS-NH2]	< 500 nM
Ac-CADWVCYWHTFGAA[dK]-OH (disulfide 1-6 (inferred)) [Ac-CADWVCYWHTFGAA[(D)Lys]-OH]	< 500 nM
CADWVCYWHTFGAK (Ac-; [β-Ala]; [(D)Lys]; disulfide) [Ac-CADWVCYWHTFG-[β-Ala]-[(D)Lys]-OH]	< 500 nM
Ac-CQTWQCYWRTNG[AEA][dK]-NH2 (disulfide 1-6; SMILES CC(=O)N[C@H]1CSSC[C@@H](C(=O)N[C@@H](Cc2ccc(O)cc2)C(=O)N[C@@H](Cc2c[nH]c3ccccc23)C(=O)N[C@@H](CCCNC(=N)N)C(=O)N[C@H](C(=O)N[C@@H](CC(N)=O)C(=O)NCC(=O)NCCOCC(=O)N[C@H](CCCCN)C(N)=O)[C@@H](C)O)NC(=O)[C@H](CCC(N)=O)NC(=O)[C@H](Cc2c[nH]c3ccccc23)NC(=O)[C@H]([C@@H](C)O)NC(=O)[C@H](CCC(N)=O)NC1=O) [Ac-CQTWQCYWRTNG-[AEA]-[(D)-Lys]-NH2, listing 1 of 2 here]	< 500 nM
Ac-CRTWQCYWRKFG[AEA][dK]-NH2 (disulfide 1-6 (inferred)) [Ac-CRTWQCYWRKFG-[AEA]-[(D)-Lys]-NH2]	< 500 nM
Ac-CRDWQCYWHKFG[PEG1][dK]-OH (disulfide 1-6; SMILES CC(=O)N[C@H]1CSSC[C@@H](C(=O)N[C@@H](Cc2ccc(O)cc2)C(=O)N[C@@H](Cc2c[nH]c3ccccc23)C(=O)N[C@@H](Cc2c[nH]cn2)C(=O)N[C@@H](CCCCN)C(=O)N[C@@H](Cc2ccccc2)C(=O)NCC(=O)NCCOCCC(=O)N[C@H](CCCCN)C(=O)O)NC(=O)[C@H](CCC(N)=O)NC(=O)[C@H](Cc2c[nH]c3ccccc23)NC(=O)[C@H](CC(=O)O)NC(=O)[C@H](CCCNC(=N)N)NC1=O) [Ac-CRDWQCYWHKFG-[AEP]-[(D)Lys]-OH]	< 500 nM
Ac-CQTWVCYWRENG[AEA][dK]-NH2 (disulfide 1-6; SMILES CC(=O)N[C@H]1CSSC[C@@H](C(=O)N[C@@H](Cc2ccc(O)cc2)C(=O)N[C@@H](Cc2c[nH]c3ccccc23)C(=O)N[C@@H](CCCNC(=N)N)C(=O)N[C@@H](CCC(=O)O)C(=O)N[C@@H](CC(N)=O)C(=O)NCC(=O)NCCOCC(=O)N[C@H](CCCCN)C(N)=O)NC(=O)[C@H](C(C)C)NC(=O)[C@H](Cc2c[nH]c3ccccc23)NC(=O)[C@H]([C@@H](C)O)NC(=O)[C@H](CCC(N)=O)NC1=O) [Ac-CQTWVCYWRENG-[AEA]-[(D)-Lys]-NH2, listing 1 of 2 here]	< 500 nM
Ac-CQTWVCYWRENG[AEA][dK]-NH2 (disulfide 1-6; SMILES CC(=O)N[C@H]1CSSC[C@@H](C(=O)N[C@@H](Cc2ccc(O)cc2)C(=O)N[C@@H](Cc2c[nH]c3ccccc23)C(=O)N[C@@H](CCCNC(=N)N)C(=O)N[C@@H](CCC(=O)O)C(=O)N[C@@H](CC(N)=O)C(=O)NCC(=O)NCCOCC(=O)N[C@H](CCCCN)C(N)=O)NC(=O)[C@H](C(C)C)NC(=O)[C@H](Cc2c[nH]c3ccccc23)NC(=O)[C@H]([C@@H](C)O)NC(=O)[C@H](CCC(N)=O)NC1=O) [Ac-CQTWVCYWRENG-[AEA]-[(D)-Lys]-NH2, listing 2 of 2 here]	< 500 nM

Other lines, results leading:

IC50	Binder
< 500 nM	H-CRDWQCYWHKFG-NH2 (disulfide 1-6 (inferred)) [Hy-CRDWQCYWHKFG-NH2]
< 500 nM	Ac-CATWQCYWHEYG-NH2 (disulfide 1-6 (inferred)) [Ac-CATWQCYWHEYG-NH2]
< 500 nM	Ac-CTTWECYWHEYG-NH2 (disulfide 1-6 (inferred)) [Ac-CTTWECYWHEYG-NH2]
< 500 nM	Ac-CRTWECYWHEFG-NH2 (disulfide 1-6 (inferred)) [Ac-CRTWECYWHEFG-NH2]
< 500 nM	Ac-CADWVCYWHTFGA[dK]-OH (disulfide 1-6 (inferred)) [Ac-CADWVCYWHTFGA-[(D)Lys]-OH]
< 500 nM	Ac-CQTWQCYW[hLeu]ENG-NH2 (disulfide 1-6 (inferred)) [Ac-CQTWQCYW[-hLeu]-ENG-NH2]
< 500 nM	Ac-CQTWQCYWRK(Ac)NG-NH2 (disulfide 1-6 (inferred)) [Ac-CQTWQCYWR-[K-Ac]-NG-NH2]
< 500 nM	Ac-CADWVCYWHTFG-OH (disulfide 1-6 (inferred)) [Ac-CADWVCYWHTFG-OH]
< 500 nM	Ac-CADWVCYWHTFGP[dK]-OH (disulfide 1-6 (inferred)) [Ac-CADWVCYWHTFGP-[(D)Lys]-OH]
< 500 nM	Ac-CQTWQCYWRTNG[AEA][dK]-NH2 (disulfide 1-6; SMILES CC(=O)N[C@H]1CSSC[C@@H](C(=O)N[C@@H](Cc2ccc(O)cc2)C(=O)N[C@@H](Cc2c[nH]c3ccccc23)C(=O)N[C@@H](CCCNC(=N)N)C(=O)N[C@H](C(=O)N[C@@H](CC(N)=O)C(=O)NCC(=O)NCCOCC(=O)N[C@H](CCCCN)C(N)=O)[C@@H](C)O)NC(=O)[C@H](CCC(N)=O)NC(=O)[C@H](Cc2c[nH]c3ccccc23)NC(=O)[C@H]([C@@H](C)O)NC(=O)[C@H](CCC(N)=O)NC1=O) [Ac-CQTWQCYWRTNG-[AEA]-[(D)-Lys]-NH2, listing 2 of 2 here]
< 500 nM	H-CSNWVCYWHTYG-NH2 (disulfide 1-6 (inferred)) [Hy-CSNWVCYWHTYG-NH2]
